# According to paper PMC9860685, “α-Crystallin Domains of Five Human Small Heat Shock Proteins (sHsps) Differ in Dimer Stabilities and Ability to Incorporate Themselves into Oligomers of Full-Length sHsps” (International Journal of Molecular Sciences, 2023):
# T1: full-length HspB6 (human, UniProt O14558 1-160)
# T1 construct: Predominantly dimeric by cited work; also called B6FL
# T1 sequence (looked up): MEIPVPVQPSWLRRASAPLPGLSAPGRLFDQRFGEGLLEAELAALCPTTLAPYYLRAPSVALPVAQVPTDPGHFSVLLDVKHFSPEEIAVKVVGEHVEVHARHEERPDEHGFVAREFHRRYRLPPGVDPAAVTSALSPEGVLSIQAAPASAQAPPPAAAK
# Tests used:
# [1] = target: T2, 3D mutant of HspB1 (S15D, S78D, S82D) (human, UniProt P04792 1-205, S15D | S78D | S82D); assay: SEC; full-length sHsp (~19–20 μM per monomer) mixed with ACD (38–110 μM per monomer) in buffer B, 30 min at 42 °C; Superdex 200 Increase column in 50 mM phosphate pH 7.4, 150 mM NaCl, 2 mM DTT; fractions analysed by SDS–PAGE; details: both partners purified
# T2 construct: human HspB1, full length, with three phosphomimicking point mutations; Forms small oligomers (probably dimers or tetramers, by cited work); also called full-length 3D mutant
# T2 sequence (P04792 whole entry S15D/S78D/S82D): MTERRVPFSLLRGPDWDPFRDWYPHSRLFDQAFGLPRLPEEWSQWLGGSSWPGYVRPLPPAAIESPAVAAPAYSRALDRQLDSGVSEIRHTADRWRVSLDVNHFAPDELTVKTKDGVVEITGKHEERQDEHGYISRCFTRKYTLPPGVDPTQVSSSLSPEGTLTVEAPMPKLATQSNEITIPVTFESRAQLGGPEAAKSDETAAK
# [2] = target: the molecule itself; assay: SEC; Superdex 75 10/300 GL, 50 mM phosphate pH 7.4, 150 mM NaCl, 2 mM DTT; 25 μL samples of 16–150 μg (25–600 μM per monomer); apparent dissociation constant, dimer to monomers, from a hyperbolic fit of elution volume against the concentration loaded
# [3] = target: the molecule itself; assay: cross-linking; glutaraldehyde 0.008% or 0.024%, ACDs at 3 mg/mL in 25 mM HEPES pH 7.5, 30 min at 30 °C; Tricine–SDS–PAGE
# full-length HspB6 = target: T1, full-length HspB6; assay: native gel or EMSA; clear native PAGE, 12.5% gel, 80 mM glycine–Tris pH 8.6; sHsp 5–6 μM per monomer mixed with ACD 20–24 μM per monomer, 30 min at 25 °C in buffer B; Western blot with anti-HspB6 for the complexes of HspB6; details: both partners purified
Binder,binding result [1],Kd [2] [µM],stoichiometry N [3],binding result (full-length HspB6)
"α-crystallin domain of HspB6 (B6ACD) (domain or fragment, human, UniProt O14558 64-149, looked up, human HspB6, α-crystallin domain, residues 64-149; Cloned by NdeI and XhoI into pET23b; In equilibrium of monomers and dimers; also called HspB6 ACD; source: E. coli, purified (ammonium sulfate fractionation, ion-exchange chromatography, size-exclusion chromatography)) VAQVPTDPGHFSVLLDVKHFSPEEIAVKVVGEHVEVHARHEERPDEHGFVAREFHRRYRLPPGVDPAAVTSALSPEGVLSIQAAPA",binds,162,–,–
"α-crystallin domain of HspB5 (B5ACD) (domain or fragment, human, UniProt P02511 64-150, looked up, human HspB5 (αB-crystallin), α-crystallin domain, residues 64-150; Cloned by NdeI and XhoI into pET23b; In equilibrium of monomers and dimers; also called HspB5 ACD; source: E. coli, purified (ammonium sulfate fractionation, ion-exchange chromatography, size-exclusion chromatography)) GLSEMRLEKDRFSVNLDVKHFSPEELKVKVLGDVIEVHGKHEERQDEHGFISREFHRKYRIPADVDPLTITSSLSSDGVLTVNGPRK",binds,127,2,binds
